We go through 1 substance from article PMC5667739.

In this assay the target is GII.10 P domain (Vietnam026) (norovirus GII.10 (Vietnam026)). Briefly: crystal structure.

“GII.10 P domain (Vietnam026) (domain or fragment)”: the stoichiometry N (commonly the number of molecules, sites or subunits per partner or assembly) amounted to 2.
